Results taken from publication PMC6150197, “NeoBOMB1, a GRPR-Antagonist for Breast Cancer Theragnostics: First Results of a Preclinical Study with [^67Ga]NeoBOMB1 in T-47D Cells and Tumor-Bearing Mice” (Molecules : A Journal of Synthetic Chemistry and Natural …, 2017).
Read-outs that look alike come from different tables or passages of the source.

What was measured:
[1] = male Swiss albino mice, iv 3 nmol total peptide, radio-HPLC
Procedure: [^67Ga]NeoBOMB1 was injected as a 100 μL bolus (11–22 MBq, 3 nmol total peptide) in the tail vein of male Swiss albino mice (30 ± 5 g, NCSR “Demokritos” Animal House Facility). Mice were anesthetized, and blood (0.5–1 mL) was collected from the heart at 5 and 30 min post injection (pi). Animals were euthanized and blood directly drawn from the heart was transferred in a pre-chilled EDTA-containing Eppendorf tube on ice. Blood samples were centrifuged for 10 min at 2000× g at 4 °C and plasma was collected. After addition of an equal volume of ice-cold MeCN the mixture was centrifuged for 10 min at 15,000× g at 4 °C. The supernatant was concentrated under a N2-flux at 40 °C to 0.05–0.1 mL, diluted with saline (0.4 mL), filtered through a 0.22 μm Millex GV filter (Millipore, Milford, MA, USA) and analyzed by RP-HPLC. The Symmetry Shield RP18 (5 μm, 3.9 mm × 20 mm) column was eluted at a flow rate of 1.0 mL/min with the following linear gradient: 100% A and 0% B to 50% A and 50% B in 50 min; (A = 0.1% aqueous TFA (v/v) and B = MeCN). The tR of the intact radiopeptide was determined by coinjection with the [^67Ga]NeoBOMB1 reference in the HPLC.

[2] = tested on: T-47D Xenograft-Bearing SCID Mice; experiment: in vivo; details: T-47D tumor, 4 h pi, mean ± sd, n = 4
Procedure: (§1) Female SCID mice (15 ± 3 g, six weeks of age animals at the day of arrival, NCSR “Demokritos” Animal House Facility) were acclimatized under aseptic conditions and treated with estrogens (receiving 4 mg/L β-estradiol, Sigma-Aldrich, St. Louis, MO, USA, in their drinking water,) for a week prior to inoculation. A ≈ 150 μL bolus containing a suspension of ≈1.2 × 10^7 freshly harvested human T-47D cells suspended in Matrigel (Corning Life Sciences, Inc., Bedford, MA, USA) was subcutaneously injected in their flanks. The animals were kept under estrogen treatment for additional 8 weeks till they developed well-palpable tumors (100–200 mg) at the inoculation sites.
(§2) On the day of the experiment animals were allowed access to water, but not to food. Animals in 3 groups of 4 received a 100 μL bolus of [^67Ga]NeoBOMB1 (37 kBq, corresponding to 10 pmol, or 200 pmol total peptide or 40 nmol for in vivo GRPR-blockade for each of the 3 groups) was injected in the tail vein; animals were euthanized at 4 h pi and dissected. Samples of blood, tumors and organs of interest were collected, weighed and measured for radioactivity in the gamma counter. Intestines and stomach were not emptied of their contents. In another experimental setting, mice in 3 groups of 4 received a 100 μL bolus of [^67Ga]NeoBOMB1 (37 kBq, 200 pmol); they were euthanized at 1 h, 4 h and 24 h pi and biodistribution was conducted as described above. Statistical analysis was conducted using the unpaired two-tailed Student’s t-test; values p < 0.05 were considered statistically significant.

in vivo = details: female, SCID, mouse, iv, total radioactivity, Biodistribution, mean ± sd, n = 4; for tissue uptake at 4 h: 4 h pi; for tissue uptake at 1 h: 1 h pi; for tissue uptake at 24 h: 24 h pi
Procedure: as §1, §2

[3] = T-47D tumor, 200 pmol, Tumor, 200 pmol peptide (0.185 MBq/nmol) iv, Table 2 time study
[4] = blood, 200 pmol, 200 pmol peptide (0.185 MBq/nmol) iv, Table 2 time study
[5] = femur, 200 pmol, 200 pmol peptide (0.185 MBq/nmol) iv, Table 2 time study
[6] = heart, 200 pmol, 200 pmol peptide (0.185 MBq/nmol) iv, Table 2 time study
[7] = intestines (not emptied), 200 pmol, Intestines, 200 pmol peptide (0.185 MBq/nmol) iv, Table 2 time study
[8] = kidneys, 200 pmol, 200 pmol peptide (0.185 MBq/nmol) iv, Table 2 time study
[9] = liver, 200 pmol, 200 pmol peptide (0.185 MBq/nmol) iv, Table 2 time study
[10] = lungs, 200 pmol, 200 pmol peptide (0.185 MBq/nmol) iv, Table 2 time study
[11] = muscle, 200 pmol, 200 pmol peptide (0.185 MBq/nmol) iv, Table 2 time study
[12] = pancreas, 200 pmol, 200 pmol peptide (0.185 MBq/nmol) iv, Table 2 time study
[13] = spleen, 200 pmol, 200 pmol peptide (0.185 MBq/nmol) iv, Table 2 time study
[14] = stomach (not emptied), 200 pmol, Stomach, 200 pmol peptide (0.185 MBq/nmol) iv, Table 2 time study

## CC(C)CC(CC(C)C)NC(=O)[C@H](Cc1cnc[nH]1)NC(=O)CNC(=O)[C@@H](NC(=O)[C@H](C)NC(=O)[C@H](Cc1c[nH]c2ccccc12)NC(=O)[C@H](CCC(N)=O)NC(=O)[C@@H](Cc1ccccc1)NC(=O)COCC(=O)Nc1ccc(CNC(=O)CN2CCN(CC(=O)O)CCN(CC(=O)O)CCN(CC(=O)O)CC2)cc1)C(C)C [[^67Ga]NeoBOMB1, metal not drawn]
[1]; blood collected 5 min pi
  Intact radioligand in mouse circulation: 98%
[1]; blood collected 30 min pi
  Intact radioligand in mouse circulation: 90%
[2]; 200 pmol peptide (0.185 MBq/nmol) iv, Table 2 time study
  Biodistribution, Tumor: 8.68 ± 2.9 % ID/g
[2]; 40 nmol NeoBOMB1, in vivo GRPR-blockade, iv
  Biodistribution, Tumor: 0.64 ± 0.10 % ID/g
In vivo; T-47D tumor, 10 pmol, Tumor, 10 pmol peptide (3.7 MBq/nmol) iv
  tissue uptake at 4 h: 9.52 ± 2.15 %ID/g
In vivo; [3]
  tissue uptake at 1 h: 7.4 ± 0.68 %ID/g
  tissue uptake at 4 h: 8.67 ± 2.88 %ID/g
  tissue uptake at 24 h: 7.89 ± 1.13 %ID/g
In vivo; T-47D tumor, 200 pmol, Tumor, 200 pmol peptide (0.185 MBq/nmol) iv, Table 1 dose study
  tissue uptake at 4 h: 7.79 ± 1.54 %ID/g
In vivo; T-47D tumor, 40 nmol, Tumor, 40 nmol NeoBOMB1, in vivo GRPR-blockade
  tissue uptake at 4 h: 0.6 ± 0.1 %ID/g
In vivo; [4]
  tissue uptake at 1 h: 5.78 ± 0.29 %ID/g
  tissue uptake at 4 h: 0.52 ± 0.03 %ID/g
  tissue uptake at 24 h: 0.15 ± 0.01 %ID/g
In vivo; femur, 10 pmol, 10 pmol peptide (3.7 MBq/nmol) iv
  tissue uptake at 4 h: 0.58 ± 0.06 %ID/g
In vivo; [5]
  tissue uptake at 1 h: 0.73 ± 0.11 %ID/g
  tissue uptake at 4 h: 0.37 ± 0.02 %ID/g
  tissue uptake at 24 h: 0.24 ± 0.08 %ID/g
In vivo; femur, 200 pmol, 200 pmol peptide (0.185 MBq/nmol) iv, Table 1 dose study
  tissue uptake at 4 h: 0.28 ± 0.01 %ID/g
In vivo; femur, 40 nmol, 40 nmol NeoBOMB1, in vivo GRPR-blockade
  tissue uptake at 4 h: 0.31 ± 0.02 %ID/g
In vivo; heart, 10 pmol, 10 pmol peptide (3.7 MBq/nmol) iv
  tissue uptake at 4 h: 0.26 ± 0.01 %ID/g
In vivo; [6]
  tissue uptake at 1 h: 1.94 ± 0.09 %ID/g
  tissue uptake at 4 h: 0.52 ± 0.04 %ID/g
  tissue uptake at 24 h: 0.22 ± 0.04 %ID/g
In vivo; heart, 200 pmol, 200 pmol peptide (0.185 MBq/nmol) iv, Table 1 dose study
  tissue uptake at 4 h: 0.34 ± 0.04 %ID/g
In vivo; heart, 40 nmol, 40 nmol NeoBOMB1, in vivo GRPR-blockade
  tissue uptake at 4 h: 0.38 ± 0.02 %ID/g
In vivo; [7]
  tissue uptake at 1 h: 10.6 ± 0.87 %ID/g
  tissue uptake at 4 h: 18.5 ± 2.12 %ID/g
  tissue uptake at 24 h: 2.31 ± 0.34 %ID/g
In vivo; intestines, 10 pmol, Intestines (not emptied), 10 pmol peptide (3.7 MBq/nmol) iv
  tissue uptake at 4 h: 16.7 ± 2.18 %ID/g
In vivo; intestines, 200 pmol, Intestines (not emptied), 200 pmol peptide (0.185 MBq/nmol) iv, Table 1 dose study
  tissue uptake at 4 h: 15.1 ± 1.52 %ID/g
In vivo; intestines, 40 nmol, Intestines (not emptied), 40 nmol NeoBOMB1, in vivo GRPR-blockade
  tissue uptake at 4 h: 11.1 ± 2.71 %ID/g
In vivo; kidneys, 10 pmol, 10 pmol peptide (3.7 MBq/nmol) iv
  tissue uptake at 4 h: 3.4 ± 0.45 %ID/g
In vivo; [8]
  tissue uptake at 1 h: 7.33 ± 0.47 %ID/g
  tissue uptake at 4 h: 3.1 ± 0.75 %ID/g
  tissue uptake at 24 h: 2.15 ± 0.42 %ID/g
In vivo; kidneys, 200 pmol, 200 pmol peptide (0.185 MBq/nmol) iv, Table 1 dose study
  tissue uptake at 4 h: 2.76 ± 0.26 %ID/g
In vivo; kidneys, 40 nmol, 40 nmol NeoBOMB1, in vivo GRPR-blockade
  tissue uptake at 4 h: 3.95 ± 0.94 %ID/g
In vivo; liver, 10 pmol, 10 pmol peptide (3.7 MBq/nmol) iv
  tissue uptake at 4 h: 3.37 ± 0.19 %ID/g
In vivo; [9]
  tissue uptake at 1 h: 25.7 ± 1.97 %ID/g
  tissue uptake at 4 h: 7.05 ± 0.31 %ID/g
  tissue uptake at 24 h: 2.26 ± 0.18 %ID/g
In vivo; liver, 200 pmol, 200 pmol peptide (0.185 MBq/nmol) iv, Table 1 dose study
  tissue uptake at 4 h: 6.5 ± 0.34 %ID/g
In vivo; liver, 40 nmol, 40 nmol NeoBOMB1, in vivo GRPR-blockade
  tissue uptake at 4 h: 9.67 ± 0.75 %ID/g
In vivo; lungs, 10 pmol, 10 pmol peptide (3.7 MBq/nmol) iv
  tissue uptake at 4 h: 0.5 ± 0.06 %ID/g
In vivo; [10]
  tissue uptake at 1 h: 2.88 ± 0.2 %ID/g
  tissue uptake at 4 h: 0.47 ± 0.04 %ID/g
  tissue uptake at 24 h: 0.15 ± 0.02 %ID/g
In vivo; lungs, 200 pmol, 200 pmol peptide (0.185 MBq/nmol) iv, Table 1 dose study
  tissue uptake at 4 h: 0.43 ± 0.06 %ID/g
In vivo; lungs, 40 nmol, 40 nmol NeoBOMB1, in vivo GRPR-blockade
  tissue uptake at 4 h: 0.42 ± 0.02 %ID/g
In vivo; muscle, 10 pmol, 10 pmol peptide (3.7 MBq/nmol) iv
  tissue uptake at 4 h: 0.1 ± 0.03 %ID/g
In vivo; [11]
  tissue uptake at 1 h: 0.58 ± 0.11 %ID/g
  tissue uptake at 4 h: 0.17 %ID/g
  tissue uptake at 24 h: 0.13 ± 0.01 %ID/g
In vivo; muscle, 200 pmol, 200 pmol peptide (0.185 MBq/nmol) iv, Table 1 dose study
  tissue uptake at 4 h: 0.12 ± 0.01 %ID/g
In vivo; muscle, 40 nmol, 40 nmol NeoBOMB1, in vivo GRPR-blockade
  tissue uptake at 4 h: 0.16 ± 0.06 %ID/g
In vivo; pancreas, 10 pmol, 10 pmol peptide (3.7 MBq/nmol) iv
  tissue uptake at 4 h: 206 ± 17.4 %ID/g
In vivo; [12]
  tissue uptake at 1 h: 32.5 ± 0.78 %ID/g
  tissue uptake at 4 h: 36.9 ± 3.58 %ID/g
  tissue uptake at 24 h: 21.3 ± 2.77 %ID/g
In vivo; pancreas, 200 pmol, 200 pmol peptide (0.185 MBq/nmol) iv, Table 1 dose study
  tissue uptake at 4 h: 42.5 ± 1.31 %ID/g
In vivo; pancreas, 40 nmol, 40 nmol NeoBOMB1, in vivo GRPR-blockade
  tissue uptake at 4 h: 1.17 ± 0.11 %ID/g
In vivo; spleen, 10 pmol, 10 pmol peptide (3.7 MBq/nmol) iv
  tissue uptake at 4 h: 1.02 ± 0.09 %ID/g
In vivo; [13]
  tissue uptake at 1 h: 1.71 ± 0.5 %ID/g
  tissue uptake at 4 h: 0.89 ± 0.12 %ID/g
  tissue uptake at 24 h: 0.46 ± 0.08 %ID/g
In vivo; spleen, 200 pmol, 200 pmol peptide (0.185 MBq/nmol) iv, Table 1 dose study
  tissue uptake at 4 h: 0.7 ± 0.09 %ID/g
In vivo; spleen, 40 nmol, 40 nmol NeoBOMB1, in vivo GRPR-blockade
  tissue uptake at 4 h: 0.79 ± 0.11 %ID/g
In vivo; [14]
  tissue uptake at 1 h: 5.89 ± 1.02 %ID/g
  tissue uptake at 4 h: 2.66 ± 0.16 %ID/g
  tissue uptake at 24 h: 2.07 ± 0.43 %ID/g
In vivo; stomach, 10 pmol, Stomach (not emptied), 10 pmol peptide (3.7 MBq/nmol) iv
  tissue uptake at 4 h: 4.36 ± 0.56 %ID/g
In vivo; stomach, 200 pmol, Stomach (not emptied), 200 pmol peptide (0.185 MBq/nmol) iv, Table 1 dose study
  tissue uptake at 4 h: 2.38 ± 0.13 %ID/g
In vivo; stomach, 40 nmol, Stomach (not emptied), 40 nmol NeoBOMB1, in vivo GRPR-blockade
  tissue uptake at 4 h: 0.42 ± 0.1 %ID/g
In vivo; whole blood, 10 pmol, Blood, 10 pmol peptide (3.7 MBq/nmol) iv
  tissue uptake at 4 h: 0.53 ± 0.04 %ID/g
In vivo; whole blood, 200 pmol, Blood, 200 pmol peptide (0.185 MBq/nmol) iv, Table 1 dose study
  tissue uptake at 4 h: 0.42 ± 0.06 %ID/g
In vivo; whole blood, 40 nmol, Blood, 40 nmol NeoBOMB1, in vivo GRPR-blockade
  tissue uptake at 4 h: 0.46 ± 0.03 %ID/g
